Literature values as cited in paper PMC8896763.
Each block holds one substance with its values, some of them ahead of it.

Legend:
CD58 (Homo sapiens) = CD58 (Homo sapiens) (UniProt P19256)
CD48 (Rattus norvegicus) = CD48 (Rattus norvegicus) (UniProt P10252)
CD80 = CD80 (UniProt P33681)
PSGL-1 (Homo sapiens) = PSGL-1 (Homo sapiens) (UniProt Q14242)
Sequence of UniProt Q14242 (Q14242 42-320): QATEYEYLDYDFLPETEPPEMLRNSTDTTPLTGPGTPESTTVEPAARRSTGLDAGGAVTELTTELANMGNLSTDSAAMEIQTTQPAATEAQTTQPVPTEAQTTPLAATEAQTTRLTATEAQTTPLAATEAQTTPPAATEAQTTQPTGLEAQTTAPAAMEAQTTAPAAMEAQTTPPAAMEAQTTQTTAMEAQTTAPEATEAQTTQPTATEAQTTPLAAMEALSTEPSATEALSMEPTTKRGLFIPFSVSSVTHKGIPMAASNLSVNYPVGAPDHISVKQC

Sequence of UniProt P10252 (P10252 23-217): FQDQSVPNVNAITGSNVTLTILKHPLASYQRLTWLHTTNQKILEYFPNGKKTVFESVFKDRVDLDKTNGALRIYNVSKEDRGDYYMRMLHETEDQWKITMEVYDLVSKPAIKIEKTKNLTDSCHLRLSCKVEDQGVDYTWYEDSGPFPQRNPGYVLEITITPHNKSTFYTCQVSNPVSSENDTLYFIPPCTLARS
Sequence of UniProt P19256 (P19256 29-215): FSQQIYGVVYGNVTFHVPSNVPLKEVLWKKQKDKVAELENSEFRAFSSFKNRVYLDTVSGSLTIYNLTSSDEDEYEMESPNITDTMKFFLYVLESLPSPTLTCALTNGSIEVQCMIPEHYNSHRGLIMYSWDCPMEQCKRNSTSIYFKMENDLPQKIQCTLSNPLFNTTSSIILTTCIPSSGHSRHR
Sequence of UniProt P33681 (P33681 35-242): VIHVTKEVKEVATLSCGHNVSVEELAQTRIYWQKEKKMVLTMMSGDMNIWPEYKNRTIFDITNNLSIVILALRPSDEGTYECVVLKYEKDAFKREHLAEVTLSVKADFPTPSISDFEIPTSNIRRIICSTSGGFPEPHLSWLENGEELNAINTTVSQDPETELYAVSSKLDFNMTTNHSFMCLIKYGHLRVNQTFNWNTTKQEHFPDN

Kd (CD58 (Homo sapiens)): 10 µM
Substance: CD2 (from UniProt P06729)

Kd (CD48 (Rattus norvegicus)): 60 µM
Substance: CD2 (from UniProt P08921)

Kd (CD80): 2 µM
Substance: CD28 (from UniProt P10747)

Kd (PSGL-1 (Homo sapiens)): 0.3 µM
Substance: P-selectin (from UniProt P16109)
